Test results from the supplement of paper PMC5998384.

Columns and labels:
HeLa Kyoto [1] = experiment: melting temperature (median over replicates), in situ; higher = more thermally stable
HeLa Kyoto [2] = experiment: thermal stability score vs G1/S (z-score of summed log2 fold changes over temperatures); higher = more thermally stable than in G1/S
[3] = cell cycle stage: early G1 (4.5 h after nocodazole release)
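For melting temperature (median over replicates), in situ in this document: HeLa Kyoto cells synchronized by double thymidine or nocodazole block, proteins quantified by TMT10plex mass spectrometry, three independent biological replicates.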
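For thermal stability score vs G1/S (z-score of summed log2 fold changes over temperatures) in this document: synchronized HeLa Kyoto cells, proteins quantified by TMT10plex mass spectrometry, three biological replicates, mitosis taken 0.5 h after nocodazole release, G1/S directly after double thymidine block.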

Sequence of LSM5 (chain, as listed by the source): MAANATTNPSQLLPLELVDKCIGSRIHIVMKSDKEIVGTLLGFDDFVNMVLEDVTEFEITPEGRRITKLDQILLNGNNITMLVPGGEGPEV

| Substance | melting temperature (HeLa Kyoto [1]; cell cycle stage: G1/S) [°C] | melting temperature (HeLa Kyoto [1]; cell cycle stage: mitosis) [°C] | thermal stability score (HeLa Kyoto [2]; [3]) | thermal stability score (HeLa Kyoto [2]; cell cycle stage: mitosis) |
| --- | --- | --- | --- | --- |
| MGSQEVLGHAARLASSGLLLQVLFRLITFVLNAFILRFLSKEIVGVVNVRLTLLYSTTLFLAREAFRRACLSGGTQRDWSQTLNLLWLTVPLGVFWSLFLGWIWLQLLEVPDPNVVPHYATGVVLFGLSAVVELLGEPFWVLAQAHMFVKLKVIAESLSVILKSVLTAFLVLWLPHWGLYIFSLAQLFYTTVLVLCYVIYFTKLLGSPESTKLQTLPVSRITDLLPNITRNGAFINWKEAKLTWSFFKQSFLKQILTEGERYVMTFLNVLNFGDQGVYDIVNNLGSLVARLIFQPIEESFYIFFAKVLERGKDATLQKQEDVAVAAAVLESLLKLALLAGLTITVFGFAYSQLALDIYGGTMLSSGSGPVLLRSYCLYVLLLAINGVTECFTFAAMSKEEVDRYNFVMLALSSSFLVLSYLLTRWCGSVGFILANCFNMGIRITQSLCFIHRYYRRSPHRPLAGLHLSPVLLGTFALSGGVTAVSEVFLCCEQGWPARLAHIAVGAFCLGATLGTAFLTETKLIHFLRTQLGVPRRTDKMT [RFT1] | 57.1 | 56.9 | -1.46 | -1.12 |
| MAEFPSKVSTRTSSPAQGAEASVSALRPDLGFVRSRLGALMLLQLVLGLLVWALIADTPYHLYPAYGWVMFVAVFLWLVTIVLFNLYLFQLHMKLYMVPWPLVLMIFNISATVLYITAFIACSAAVDLTSLRGTRPYNQRAAASFFACLVMIAYGVSAFFSYQAWRGVGSNAATSQMAGGYA [PLLP] | 56.7 | 58.5 | -2.71 | -3.25 |
| MYH14 | 53.1 | 52.2 | -0.174 | -1.24 |
| MGVNAVHWFRKGLRLHDNPALKECIQGADTIRCVYILDPWFAGSSNVGINRWRFLLQCLEDLDANLRKLNSRLFVIRGQPADVFPRLFKEWNITKLSIEYDSEPFGKERDAAIKKLATEAGVEVIVRISHTLYDLDKIIELNGGQPPLTYKRFQTLISKMEPLEIPVETITSEVIEKCTTPLSDDHDEKYGVPSLEELGFDTDGLSSAVWPGGETEALTRLERHLERKAWVANFERPRMNANSLLASPTGLSPYLRFGCLSCRLFYFKLTDLYKKVKKNSSPPLSLYGQLLWREFFYTAATNNPRFDKMEGNPICVQIPWDKNPEALAKWAEGRTGFPWIDAIMTQLRQEGWIHHLARHAVACFLTRGDLWISWEEGMKVFEELLLDADWSINAGSWMWLSCSSFFQQFFHCYCPVGFGRRTDPNGDYIRRYLPVLRGFPAKYIYDPWNAPEGIQKVAKCLIGVNYPKPMVNHAEASRLNIERMKQIYQQLSRYRGLGLLASVPSNPNGNGGFMGYSAENIPGCSSSGSCSQGSGILHYAHGDSQQTHLLKQGRSSMGTGLSGGKRPSQEEDTQSIGPKVQRQSTN [CRY1] |  | 52 | 0.298 | -0.281 |
| LSM5 | 55.9 | 52.9 | -2.66 | -1.99 |
| MGLPALEFSDCCLDSPHFRETLKSHEAELDKTNKFIKELIKDGKSLISALKNLSSAKRKFADSLNEFKFQCIGDAETDDEMCIARSLQEFATVLRNLEDERIRMIENASEVLITPLEKFRKEQIGAAKEAKKKYDKETEKYCGILEKHLNLSSKKKESQLQEADSQVDLVRQHFYEVSLEYVFKVQEVQERKMFEFVEPLLAFLQGLFTFYHHGYELAKDFGDFKTQLTISIQNTRNRFEGTRSEVESLMKKMKENPLEHKTISPYTMEGYLYVQEKRHFGTSWVKHYCTYQRDSKQITMVPFDQKSGGKGGEDESVILKSCTRRKTDSIEKRFCFDVEAVDRPGVITMQALSEEDRRLWMEAMDGREPVYNSNKDSQSEGTAQLDSIGFSIIRKCIHAVETRGINEQGLYRIVGVNSRVQKLLSVLMDPKTASETETDICAEWEIKTITSALKTYLRMLPGPLMMYQFQRSFIKAAKLENQESRVSEIHSLVHRLPEKNRQMLQLLMNHLANVANNHKQNLMTVANLGVVFGPTLLRPQEETVAAIMDIKFQNIVIEILIENHEKIFNTVPDMPLTNAQLHLSRKKSSDSKPPSCSERPLTLFHTVQSTEKQEQRNSIINSSLESVSSNPNSILNSSSSLQPNMNSSDPDLAVVKPTRPNSLPPNPSPTSPLSPSWPMFSAPSSPMPTSSTSSDSSPVRSVAGFVWFSVAAVVLSLARSSLHAVFSLLVNFVPCHPNLHLLFDRPEEAVHEDSSTPFRKAKALYACKAEHDSELSFTAGTVFDNVHPSQEPGWLEGTLNGKTGLIPENYVEFL [ARHGAP26] |  | 52 | -0.227 | -0.147 |
| MSGGRAPAVLLGGVASLLLSFVWMPALLPVASRLLLLPRVLLTMASGSPPTQPSPASDSGSGYVPGSVSAAFVTCPNEKVAKEIARAVVEKRLAACVNLIPQITSIYEWKGKIEEDSEVLMMIKTQSSLVPALTDFVRSVHPYEVAEVIALPVEQGNFPYLQWVRQVTESVSDSITVLP [CUTA] | 57.7 | 54.8 | -1.46 | -1.38 |
